# Measured values: paper PMC4954055, “A Self‐Assembled Respiratory Chain that Catalyzes NADH Oxidation by Ubiquinone‐10 Cycling between Complex I and the Alternative Oxidase” (Angewandte Chemie (International Ed. in English), 2015)
# B1: complex I (NADH:ubiquinone oxidoreductase, CI) (Bos taurus) (protein)
# chain 1: ARQWQPDVEWAEQYGGAVMYPTKETAHWKPPPWNDVDPPKDTLVSNLTLNFGPQHPAAHGVLRLVMELSGEMVRKCDPHIGLLHRGTEKLIEYKTYLQALPYFDRLDYVSMMCNEQAYSLAVEKLLNIQPPPRAQWIRVLFGEITRLLNHIMAVTTHALDIGAMTPFFWMFEEREKMFEFYERVSGARMHAAYVRPGGVHQDLPLGLMDDIYEFSKNFSLRIDELEEMLTNNRIWRNRTVDIGIVTAEDALNYGFSGVMLRGSGIQWDLRKTQPYDVYDQVEFDVPIGSRGDCYDRYLCRVEEMRQSIRIISQCLNKMPPGEIKVDDAKVSPPKRAEMKTSMESLIHHFKLYTEGYQVPPGATYTAIEAPKGEFGVYLVSDGSSRPYRCKIKAPGFAHLAGLDKMSKGHMLADVVAIIGTQDIVFGEVDR
# chain 2: not shown
# chain 3: not shown
# notes: native complex purified from heart mitochondria, detergent-solubilized, reconstituted into proteoliposomes with Q10 and AOX; with NADH dehydrogenase [ubiquinone] flavoprotein 1, mitochondrial; NADH dehydrogenase [ubiquinone] flavoprotein 2, mitochondrial; NADH-ubiquinone oxidoreductase 75 kDa subunit, mitochondrial; NADH dehydrogenase [ubiquinone] iron-sulfur protein 3, mitochondrial; NADH …
# Substrate: COC1=C(OC)C(=O)C(C/C=C(\C)CC/C=C(\C)CC/C=C(\C)CC/C=C(\C)CC/C=C(\C)CC/C=C(\C)CC/C=C(\C)CC/C=C(\C)CC/C=C(\C)CCC=C(C)C)=C(C)C1=O
# Experiment: NADH:O2 oxidoreduction in Q10 proteoliposomes, Michaelis-Menten fit
# Format: biochemical, Bos taurus
# Settings: 200 μM NADH, 15 μg/mL alamethicin, 10 mM Tris-SO4 pH 7.5, 50 mM KCl, 32 °C, excess AOX reoxidizes Q10H2, membrane-phase concentration, stated as approximately 3.9 mM Q10 in the membrane phase
protein,measurement,value
B1,kcat,500 s⁻¹
